According to the supplement of paper PMC9112550, “Optimization of the antimicrobial peptide Bac7 by deep mutational scanning” (BMC Biology, 2022):

System: Escherichia coli TOP10
Experiment: shrunken log2 fold change of peptide-encoding DNA abundance (4.5 h post-induction vs induction); higher = less antimicrobial activity (less host growth inhibition)
Settings: time post-induction: 4.5 h; library: site-saturation at positions 5, 18, 19, 20
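Also: peptides expressed intracellularly from a pBAD plasmid library in pooled LB shake-flask culture, induced with 0.3% L-arabinose, DNA abundance read by NGS, three biological replicates, DESeq2 with apeglm shrinkage.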

Q: How did the “shrunken log2 fold change” value turn out when RRIRWRPPRLPRPRPRPVDNPRP was run?
A: Its value is -0.018.

Q: RRIRHRPPRLPRPRPRPEKPPRP was tested. Which “shrunken log2 fold change” value did it give?
A: The value was -0.01.

Q: How did the “shrunken log2 fold change” value turn out when RRIRTRPPRLPRPRPRPADYPRP was run?
A: The value was -0.226.

Q: Which “shrunken log2 fold change” value does the source give for RRIRVRPPRLPRPRPRPCAEPRP here?
A: The value was -0.0931.

Q: With RRIRMRPPRLPRPRPRPCRHPRP as the sequence, how does the “shrunken log2 fold change” value read?
A: Its value is -0.0252.

Q: With RRIRWRPPRLPRPRPRPWVNPRP as the sequence, how does the “shrunken log2 fold change” value read?
A: The value was -0.183.

Q: Which “shrunken log2 fold change” value does the source give for RRIRERPPRLPRPRPRPGRLPRP here?
A: The value was -0.263.

Q: For RRIRKRPPRLPRPRPRPCRQPRP, which “shrunken log2 fold change” value is on record?
A: The value was -0.166.

Q: How did the “shrunken log2 fold change” value turn out when RRIRNRPPRLPRPRPRPFNCPRP was run?
A: The value was -0.112.

Q: With RRIRQRPPRLPRPRPRPTCIPRP as the sequence, how does the “shrunken log2 fold change” value read?
A: The value was -0.0736.

Q: Which “shrunken log2 fold change” value does the source give for RRIRNRPPRLPRPRPRPCQFPRP here?
A: Its value is -0.0212.

Q: Which “shrunken log2 fold change” value does the source give for RRIRCRPPRLPRPRPRPDTKPRP here?
A: Its value is -0.158.

Q: RRIRDRPPRLPRPRPRPGMEPRP was tested. Which “shrunken log2 fold change” value did it give?
A: The value was 0.784.

Q: Which “shrunken log2 fold change” value does the source give for RRIRERPPRLPRPRPRPLFIPRP here?
A: Its value is -0.0618.

Q: With RRIRPRPPRLPRPRPRPTSTPRP as the sequence, how does the “shrunken log2 fold change” value read?
A: The value was -0.0454.

Q: Which “shrunken log2 fold change” value does the source give for RRIRTRPPRLPRPRPRPLGRPRP here?
A: Its value is 2.94.

Q: How did the “shrunken log2 fold change” value turn out when RRIRRRPPRLPRPRPRPNHGPRP was run?
A: Its value is -0.0793.

Q: How did the “shrunken log2 fold change” value turn out when RRIRPRPPRLPRPRPRPSYVPRP was run?
A: The value was -0.127.

Q: With RRIRMRPPRLPRPRPRPEATPRP as the sequence, how does the “shrunken log2 fold change” value read?
A: The value was 4.04.

Q: How did the “shrunken log2 fold change” value turn out when RRIRDRPPRLPRPRPRPTKFPRP was run?
A: The value was 0.138.

Q: With RRIRNRPPRLPRPRPRPHLQPRP as the sequence, how does the “shrunken log2 fold change” value read?
A: Its value is -0.198.

Q: With RRIRARPPRLPRPRPRPHRGPRP as the sequence, how does the “shrunken log2 fold change” value read?
A: Its value is 0.14.

Q: How did the “shrunken log2 fold change” value turn out when RRIRKRPPRLPRPRPRPCWWPRP was run?
A: Its value is 0.284.

Q: For RRIRNRPPRLPRPRPRPTKFPRP, which “shrunken log2 fold change” value is on record?
A: The value was -0.607.

Q: How did the “shrunken log2 fold change” value turn out when RRIRPRPPRLPRPRPRPLPSPRP was run?
A: The value was 0.0677.

Q: With RRIRERPPRLPRPRPRPDLAPRP as the sequence, how does the “shrunken log2 fold change” value read?
A: The value was 0.27.

Q: How did the “shrunken log2 fold change” value turn out when RRIRYRPPRLPRPRPRPFYNPRP was run?
A: The value was -1.15.

Q: RRIRYRPPRLPRPRPRPMCVPRP was tested. Which “shrunken log2 fold change” value did it give?
A: The value was -0.227.

Q: Which “shrunken log2 fold change” value does the source give for RRIRCRPPRLPRPRPRPTCKPRP here?
A: The value was -0.184.

Q: For RRIRIRPPRLPRPRPRPIVNPRP, which “shrunken log2 fold change” value is on record?
A: The value was -0.67.

Q: Which “shrunken log2 fold change” value does the source give for RRIRKRPPRLPRPRPRPPKTPRP here?
A: The value was 0.0147.

Q: RRIRNRPPRLPRPRPRPDPHPRP was tested. Which “shrunken log2 fold change” value did it give?
A: The value was -0.263.

Q: With RRIRMRPPRLPRPRPRPVAHPRP as the sequence, how does the “shrunken log2 fold change” value read?
A: The value was 0.148.

Q: With RRIRGRPPRLPRPRPRPEEWPRP as the sequence, how does the “shrunken log2 fold change” value read?
A: The value was 1.7.

Q: RRIRCRPPRLPRPRPRPNNAPRP was tested. Which “shrunken log2 fold change” value did it give?
A: Its value is -0.799.

Q: How did the “shrunken log2 fold change” value turn out when RRIRIRPPRLPRPRPRPLMSPRP was run?
A: Its value is -0.372.

Q: For RRIRQRPPRLPRPRPRPPRLPRP, which “shrunken log2 fold change” value is on record?
A: The value was 0.287.

Q: Which “shrunken log2 fold change” value does the source give for RRIRKRPPRLPRPRPRPIGWPRP here?
A: The value was 0.7.

Q: How did the “shrunken log2 fold change” value turn out when RRIRHRPPRLPRPRPRPLIQPRP was run?
A: The value was -0.0847.

Q: Which “shrunken log2 fold change” value does the source give for RRIRDRPPRLPRPRPRPTPRPRP here?
A: The value was 0.792.

Q: How did the “shrunken log2 fold change” value turn out when RRIRFRPPRLPRPRPRPEHWPRP was run?
A: Its value is 0.0716.

Q: How did the “shrunken log2 fold change” value turn out when RRIRGRPPRLPRPRPRPKQYPRP was run?
A: The value was 0.234.

Q: How did the “shrunken log2 fold change” value turn out when RRIRSRPPRLPRPRPRPVSWPRP was run?
A: Its value is 0.437.

Q: With RRIRQRPPRLPRPRPRPMMFPRP as the sequence, how does the “shrunken log2 fold change” value read?
A: Its value is -0.3.

Q: For RRIRCRPPRLPRPRPRPMQPPRP, which “shrunken log2 fold change” value is on record?
A: Its value is 0.462.

Q: RRIRYRPPRLPRPRPRPELKPRP was tested. Which “shrunken log2 fold change” value did it give?
A: The value was -0.162.

Q: With RRIRDRPPRLPRPRPRPRGEPRP as the sequence, how does the “shrunken log2 fold change” value read?
A: Its value is 0.267.

Q: RRIRYRPPRLPRPRPRPEFVPRP was tested. Which “shrunken log2 fold change” value did it give?
A: The value was -0.327.

Q: How did the “shrunken log2 fold change” value turn out when RRIRFRPPRLPRPRPRPVGTPRP was run?
A: Its value is 0.00754.

Q: How did the “shrunken log2 fold change” value turn out when RRIRLRPPRLPRPRPRPWVNPRP was run?
A: Its value is -0.271.

Q: For RRIRPRPPRLPRPRPRPSRLPRP, which “shrunken log2 fold change” value is on record?
A: Its value is -0.0839.

Q: For RRIRMRPPRLPRPRPRPPVGPRP, which “shrunken log2 fold change” value is on record?
A: Its value is 1.06.

Q: With RRIRDRPPRLPRPRPRPQANPRP as the sequence, how does the “shrunken log2 fold change” value read?
A: Its value is 0.231.

Q: RRIRQRPPRLPRPRPRPPDKPRP was tested. Which “shrunken log2 fold change” value did it give?
A: Its value is -0.116.

Q: Which “shrunken log2 fold change” value does the source give for RRIRFRPPRLPRPRPRPCHRPRP here?
A: Its value is -0.113.

Q: RRIRSRPPRLPRPRPRPMDYPRP was tested. Which “shrunken log2 fold change” value did it give?
A: Its value is 0.0691.

Q: Which “shrunken log2 fold change” value does the source give for RRIRERPPRLPRPRPRPPCIPRP here?
A: Its value is -0.163.

Q: RRIRVRPPRLPRPRPRPVFCPRP was tested. Which “shrunken log2 fold change” value did it give?
A: Its value is 0.142.

Q: Which “shrunken log2 fold change” value does the source give for RRIRMRPPRLPRPRPRPASCPRP here?
A: The value was 0.629.

Q: For RRIRFRPPRLPRPRPRPWKCPRP, which “shrunken log2 fold change” value is on record?
A: Its value is 0.0039.

Q: RRIRWRPPRLPRPRPRPDVMPRP was tested. Which “shrunken log2 fold change” value did it give?
A: Its value is 0.126.

Q: How did the “shrunken log2 fold change” value turn out when RRIRTRPPRLPRPRPRPKDRPRP was run?
A: The value was -0.196.

Q: RRIRDRPPRLPRPRPRPRCIPRP was tested. Which “shrunken log2 fold change” value did it give?
A: The value was -0.0108.

Q: RRIRNRPPRLPRPRPRPPDCPRP was tested. Which “shrunken log2 fold change” value did it give?
A: The value was 0.036.

Q: How did the “shrunken log2 fold change” value turn out when RRIRRRPPRLPRPRPRPECAPRP was run?
A: The value was 0.426.

Q: Which “shrunken log2 fold change” value does the source give for RRIRQRPPRLPRPRPRPPFTPRP here?
A: Its value is -0.0512.

Q: RRIRWRPPRLPRPRPRPQMVPRP was tested. Which “shrunken log2 fold change” value did it give?
A: Its value is 0.0853.

Q: How did the “shrunken log2 fold change” value turn out when RRIRNRPPRLPRPRPRPKTSPRP was run?
A: The value was -0.0653.

Q: How did the “shrunken log2 fold change” value turn out when RRIRCRPPRLPRPRPRPHLRPRP was run?
A: Its value is 0.144.

Q: RRIRERPPRLPRPRPRPDMNPRP was tested. Which “shrunken log2 fold change” value did it give?
A: The value was -0.00248.

Q: How did the “shrunken log2 fold change” value turn out when RRIRLRPPRLPRPRPRPLVMPRP was run?
A: The value was -0.0627.

Q: For RRIRTRPPRLPRPRPRPSLIPRP, which “shrunken log2 fold change” value is on record?
A: The value was -0.424.

Q: RRIRWRPPRLPRPRPRPTQFPRP was tested. Which “shrunken log2 fold change” value did it give?
A: The value was 0.0858.

Q: How did the “shrunken log2 fold change” value turn out when RRIRIRPPRLPRPRPRPNFRPRP was run?
A: The value was -0.297.

Q: RRIRSRPPRLPRPRPRPPDIPRP was tested. Which “shrunken log2 fold change” value did it give?
A: The value was -0.283.
